Assay [1] addresses DD(E) soluble fibrin-derived polypeptide (UniProt P02671). Nature of the assay: Kd against DD(E) target, 'as described above'.
Assay [2] has the same target. Description: Kd against DD(E) target.
Assay [3] deals with T1, dried fibrin (UniProt P02671 36-629; P02675 45-491; P02679 27-437, limits assumed).
T1 construct: Polymerised fibrin made in 96-well plates from fibrinogen and thrombin, dried at 37 C and rehydrated; also called (rehydrated) dried fibrin; fibrin target
T1 sequence (looked up) 1: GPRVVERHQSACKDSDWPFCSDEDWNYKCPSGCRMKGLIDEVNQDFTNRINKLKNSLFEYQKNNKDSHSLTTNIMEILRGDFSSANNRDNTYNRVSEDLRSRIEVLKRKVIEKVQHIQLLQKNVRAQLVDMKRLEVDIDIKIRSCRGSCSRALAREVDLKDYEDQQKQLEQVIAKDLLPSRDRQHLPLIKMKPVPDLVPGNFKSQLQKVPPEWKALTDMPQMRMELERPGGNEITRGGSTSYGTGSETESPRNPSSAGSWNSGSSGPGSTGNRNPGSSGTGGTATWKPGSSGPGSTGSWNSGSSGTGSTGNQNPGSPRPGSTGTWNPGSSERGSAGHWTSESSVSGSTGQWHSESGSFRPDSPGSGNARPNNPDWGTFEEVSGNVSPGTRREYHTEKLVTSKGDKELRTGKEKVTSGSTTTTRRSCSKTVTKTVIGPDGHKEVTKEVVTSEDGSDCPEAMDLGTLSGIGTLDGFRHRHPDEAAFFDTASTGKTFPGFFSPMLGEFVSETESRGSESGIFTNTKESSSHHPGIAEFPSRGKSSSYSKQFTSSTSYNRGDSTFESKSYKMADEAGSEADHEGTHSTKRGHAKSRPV
T1 sequence (looked up) 2: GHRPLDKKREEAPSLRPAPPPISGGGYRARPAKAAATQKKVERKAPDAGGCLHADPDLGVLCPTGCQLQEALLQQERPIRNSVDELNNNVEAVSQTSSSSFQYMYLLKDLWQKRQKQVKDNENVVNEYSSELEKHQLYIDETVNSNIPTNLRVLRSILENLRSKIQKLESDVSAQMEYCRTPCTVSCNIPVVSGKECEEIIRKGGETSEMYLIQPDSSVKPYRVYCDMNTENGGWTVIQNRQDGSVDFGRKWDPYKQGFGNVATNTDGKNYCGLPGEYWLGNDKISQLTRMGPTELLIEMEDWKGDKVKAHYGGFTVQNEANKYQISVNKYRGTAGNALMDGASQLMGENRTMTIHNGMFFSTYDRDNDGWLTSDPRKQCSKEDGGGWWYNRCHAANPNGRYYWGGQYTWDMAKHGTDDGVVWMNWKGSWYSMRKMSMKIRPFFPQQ
T1 sequence (looked up) 3: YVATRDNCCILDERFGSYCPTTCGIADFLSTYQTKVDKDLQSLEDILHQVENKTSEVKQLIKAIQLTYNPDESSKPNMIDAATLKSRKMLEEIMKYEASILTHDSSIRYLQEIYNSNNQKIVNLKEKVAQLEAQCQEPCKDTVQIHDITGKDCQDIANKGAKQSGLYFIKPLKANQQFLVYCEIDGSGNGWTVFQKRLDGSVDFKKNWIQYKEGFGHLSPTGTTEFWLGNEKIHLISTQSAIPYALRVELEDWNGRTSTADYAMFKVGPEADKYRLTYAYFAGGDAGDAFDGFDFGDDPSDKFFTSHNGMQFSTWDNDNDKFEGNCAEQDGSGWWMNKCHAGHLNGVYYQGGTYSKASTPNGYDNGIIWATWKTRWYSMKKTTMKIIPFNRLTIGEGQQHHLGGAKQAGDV
Description: dried fibrin plate, bound vs free peptide.

Assay [4] has as its target T1, dried fibrin. Nature of the assay: dried fibrin plate, bound vs free peptide. The method, then: (§1) A fibrinogen solution was prepared at 10 mg/ml (or at twice the concentration of fibrin desired) in TBS buffer (50 mM Tris, 150 mM NaCl, pH 7.4). The fibrinogen solution typically contained ˜17 mM citrate. Subsequently, a solution was prepared containing 2 U/ml thrombin, 20 mM CaCl₂, and 5 mM ε-aminocaproic acid in TBS. The fibrinogen solution and thrombin solution were mixed 1:1 in the wells of a 96-well plate, aliquoting 50 μL of each solution in each well (total volume=100 μL). The plates were evaporated to dryness overnight at 37° C. The polypeptide to be tested, dissolved in water, was added to each well at concentrations between 1-200 μM. […] The plate containing the peptide and (rehydrated) dried fibrin was covered and incubated at 37° C. on a shaker table for 2 hours.
(§2) The supernatant in each well was removed by pipette and the concentration of the polypeptide was measured by mass spectrometry. The ion current detected at the mass of the peptide was monitored after injection of a sample into the mass spectrometer. The area-under-the-peak was quantitated and compared to standards of known concentration. The concentration of peptide in the supernatant is equal to the concentration of free peptide. The concentration of bound peptide was determined by subtracting the concentration of free peptide from the total (starting) concentration. A plot of [Bound Peptide] vs. [Free Peptide] was used to determine the Kd and the concentration of bound peptide at saturation. The curve was fit to the equation: [Bound]=N×[Free]/(Kd+[Free]) where [Bound] is the concentration of bound polypeptide, [Free] is the concentration of free polypeptide, Kd is the dissociation constant (equal to the reciprocal of Kₐ) and N is the concentration of binding sites. The number of binding sites per fibrin molecule was equal to the lo concentration of binding sites determined by the [Bound Polypeptide] vs. [Free Polypeptide] plot, divided by the concentration of fibrin (15 μM) used in the assay.
The source holds these as a separate data set.

In assay [5] the target is DD(E) soluble fibrin-derived polypeptide (UniProt P02671). Nature of the assay: synthetic peptide, Kd against DD(E) target.
For assay [6], the target named is T1, dried fibrin. Description: dried fibrin plate, free peptide by mass spectrometry, bound vs free fit. The method, then: as §1, §2

The text below walks through data of US20050261472A1, “Binding moieties for fibrin” (Dyax Corp., priority 1999, published 2005).

Bridge positions count the residues as written; N and C are the ends. Ends that are not written are not given here.

As a reminder, the Kd is the constant that tells how readily two partners part at equilibrium. Lower therefore signals a tighter complex.

For the molecule QWECPYGLCWIQ (peptide, not shown: large carriers), in assay [1], the Kd turned out to be 0.74 µM.
In the case of GQWECPYGLCWIQ (disulfide 5-10; not fully specified (N-terminus); also: Gd(III) chelate of DTPA) [Gd-DTPA-Gly[SEQ ID NO: 22]], the dissociation constant (Kd) in assay [2] came out at 3.1 µM; with dried fibrin [3] it was 3.6 µM.

B1: alanine scan peptide LACDYYGTCLD (peptide)
peptide: H-LACDYYGTCLD-NH2
modifications: disulfide 3-9
SMILES: CC(C)C[C@H](NC(=O)[C@@H]1CSSC[C@H](NC(=O)[C@H](C)NC(=O)[C@@H](N)CC(C)C)C(=O)N[C@@H](CC(=O)O)C(=O)N[C@@H](Cc2ccc(O)cc2)C(=O)N[C@@H](Cc2ccc(O)cc2)C(=O)NCC(=O)N[C@@H]([C@@H](C)O)C(=O)N1)C(=O)N[C@@H](CC(=O)O)C(N)=O
Consider B1, for which the Kd with dried fibrin [4] amounted to 31 µM.
LPCDYYATCLD (C-terminal amide; N-terminus free) [alanine scan peptide LPCDYYATCLD] had a dissociation constant Kd with dried fibrin [4] of 41 µM.

B2: alanine scan peptide LPCDYYGTCAD (peptide)
peptide: H-LPCDYYGTCAD-NH2
modifications: disulfide 3-9
SMILES: CC(C)C[C@H](N)C(=O)N1CCC[C@H]1C(=O)N[C@H]1CSSC[C@@H](C(=O)N[C@@H](C)C(=O)N[C@@H](CC(=O)O)C(N)=O)NC(=O)[C@H]([C@@H](C)O)NC(=O)CNC(=O)[C@H](Cc2ccc(O)cc2)NC(=O)[C@H](Cc2ccc(O)cc2)NC(=O)[C@H](CC(=O)O)NC1=O
B2: the Kd with dried fibrin [4] came out at 32 µM.

B3: alanine scan peptide LPCDAYGTCLD (peptide)
peptide: H-LPCDAYGTCLD-NH2
modifications: disulfide 3-9
SMILES: CC(C)C[C@H](NC(=O)[C@@H]1CSSC[C@H](NC(=O)[C@@H]2CCCN2C(=O)[C@@H](N)CC(C)C)C(=O)N[C@@H](CC(=O)O)C(=O)N[C@@H](C)C(=O)N[C@@H](Cc2ccc(O)cc2)C(=O)NCC(=O)N[C@@H]([C@@H](C)O)C(=O)N1)C(=O)N[C@@H](CC(=O)O)C(N)=O
Turning to B3, the Kd with dried fibrin [4] was 16 µM.
QWECPYGLCWIQ (disulfide 4-9 (inferred)): the Kd in assay [2] and in assay [5] was 2.96 µM each time.

B4: synthetic polypeptide RPCNYYGTCLH (peptide)
peptide: H-RPCNYYGTCLH-NH2
modifications: disulfide 3-9
SMILES: CC(C)C[C@H](NC(=O)[C@@H]1CSSC[C@H](NC(=O)[C@@H]2CCCN2C(=O)[C@@H](N)CCCNC(=N)N)C(=O)N[C@@H](CC(N)=O)C(=O)N[C@@H](Cc2ccc(O)cc2)C(=O)N[C@@H](Cc2ccc(O)cc2)C(=O)NCC(=O)N[C@@H]([C@@H](C)O)C(=O)N1)C(=O)N[C@@H](Cc1c[nH]cn1)C(N)=O
notes: Solid-phase synthesis; disulfide loop between the cysteines
In turn, B4 came in with a Kd in the assay with dried fibrin [6] of 8.5 µM.

B5: synthetic polypeptide LPCSYYGTCLH (peptide)
peptide: H-LPCSYYGTCLH-NH2
modifications: disulfide 3-9
SMILES: CC(C)C[C@H](NC(=O)[C@@H]1CSSC[C@H](NC(=O)[C@@H]2CCCN2C(=O)[C@@H](N)CC(C)C)C(=O)N[C@@H](CO)C(=O)N[C@@H](Cc2ccc(O)cc2)C(=O)N[C@@H](Cc2ccc(O)cc2)C(=O)NCC(=O)N[C@@H]([C@@H](C)O)C(=O)N1)C(=O)N[C@@H](Cc1c[nH]cn1)C(N)=O
notes: as for B4
In the assay with dried fibrin [6], B5 returned an equilibrium dissociation constant (Kd) of 13 µM.
With WFHCPYDLCHIL (disulfide 4-9 (inferred)), the Kd in assay [2] and in assay [5] was 2.63 µM throughout.

B6: synthetic polypeptide RPCDYYGTCFD (peptide)
peptide: H-RPCDYYGTCFD-NH2
modifications: disulfide 3-9
SMILES: C[C@@H](O)[C@@H]1NC(=O)CNC(=O)[C@H](Cc2ccc(O)cc2)NC(=O)[C@H](Cc2ccc(O)cc2)NC(=O)[C@H](CC(=O)O)NC(=O)[C@@H](NC(=O)[C@@H]2CCCN2C(=O)[C@@H](N)CCCNC(=N)N)CSSC[C@@H](C(=O)N[C@@H](Cc2ccccc2)C(=O)N[C@@H](CC(=O)O)C(N)=O)NC1=O
notes: as for B4
B6 registered a dissociation constant (Kd) in the assay with dried fibrin [6] of 6.8 µM.
Consider WFHCPYDLCHIL (peptide, not shown: large carriers), for which the Kd in assay [1] is 1.4 µM.
